Results from patent US20220193186A1, “METHOD OF TREATING AND PREVENTING BONE AND JOINT INFECTIONS” (CONTRAFECT CORPORATION, priority 2019, published 2022).
≈ marks a conversion by molar mass, not a printed value.

Tests used:
[1] = Body weight of rats in osteomyelitis model (Example 6); assay type: in vivo, Sprague Dawley rats; settings: mean; for Body weight on Day 1: time of surgery (before treatment); for Body weight on Day 8: immediately prior to treatment; for Body weight on Day 12: time of sacrifice, without or with DAP 60 mg/kg
Protocol: (§1) The following six treatment groups were identified: (1) control/no treatment (n=18); (2) 60 mg/kg daptomycin (DAP) administered subcutaneously twice daily for 4 days (n=17); (3) 40 mg/kg pp296 administered intravenously daily for 4 days (n=17); (4) 40 mg/kg pp296 administered intravenously daily for 4 days plus 60 mg/kg DAP administered subcutaneously twice daily for 4 days (n=17); (5) 100 mg/kg pp296 administered intravenously once as a single dose on treatment day 1 (n=17); and (6) 100 mg/kg pp296 administered intravenously once as a single dose on treatment day 1 plus 60 mg/kg DAP administered subcutaneously twice daily for 4 days (n=17). When daptomycin was administered together with pp296, it was given 15 minutes prior to pp296, which was maintained on ice.
Additionally, body weights of the animals were monitored as a marker of general health status during the study. The mean body weight of the animals at the time of surgery (day 1), immediately prior to treatment (day 8), and at the time of sacrifice (day 12) are shown below in Table 5.

MRSA IDRL-6169 [2] = assay: Acute MRSA osteomyelitis in rats, quantitative culture of tibia (Example 4); assay type: in vivo, Sprague Dawley rats; settings: rat tibia, daptomycin 60 mg/kg i.p. every 12 hours for four days, CF-301 single dose 40 mg/kg tail vein; for mean (±SD) bacterial density: Day 12 (4 days after start of therapy); for reduction compared to untreated rats: Day 12
MRSA IDRL-6169 biofilm = assay: Minimum biofilm inhibitory and bactericidal concentrations; assay type: cell-based, Staphylococcus aureus; settings: CF-301 testing with 0.5 mM DL-dithiothreitol and 25% horse serum
MRSA IDRL-6169 [3] = assay: MIC by broth microdilution; assay type: cell-based, Staphylococcus aureus; settings: MRSA IDRL-6169, broth microdilution, CF-301 testing with 0.5 mM DL-dithiothreitol and 25% horse serum
[4] = test system: methicillin-resistant Staphylococcus aureus IDRL-6169; assay: Rat osteomyelitis model, quantitative culture of tibia (Example 6); assay type: in vivo, Sprague Dawley rats; settings: for Mean log10 CFU/g / Median log10 CFU/g: rat tibia bone; for Mean log10 CFU/g reduction: vs no treatment
Protocol: Agents Chemother. 2019 Sep. 23; 63(10). Specifically, osteomyelitis was established in the rats by bending the knee joint, inserting a 21G needle into the tibial process, and injecting 10 μl […] and 50 μl of about 10^6-10^8 colony forming units (cfu) suspension of methicillin-resistant Staphylococcus aureus IDRL-6169.
as §1
Animals were sacrificed twelve hours after the last treatment was administered, and the tibia were collected, weighed, and cryopulverized for quantitative bacterial culture. The log10 CFU counts/g of tibia bone was determined using the Wilcoxon rank sum test, adjusted with a false discovery rate approach.

[5] = test system: multiple drug resistant (MDR) Staphylococcus epidermidis prosthetic knee infection; assay: CF-301 during arthroscopic DAIR in patients with prosthetic knee infection
[6] = test system: S. aureus (MRSA strains MW2, ATCC BAA-42); assay: MIC by broth microdilution (CLSI) in caMHB-HSF and caMHB-HSD; assay type: cell-based
[7] = test system: S. epidermidis clinical isolates; assay: as above; assay type: cell-based; settings: S. epidermidis (N = 53)
Excerpt: More particularly MIC values for a lysin may be determined against e.g., S. epidermidis or S. aureus in e.g., Mueller-Hinton broth (MHB) supplemented with physiological salt concentrations and synovial fluid, such as human synovial fluid. Minimum Inhibitory Concentrations (MICs) of a lysin against e.g., S. epidermidis may be determined using broth microdilution (BMD) following Clinical and Laboratory Standards Institute (CLSI) methodology (M07-A11, 2018, which is herein incorporated by reference in its entirety) in a non-standard medium (caMHB supplemented to 50% with human synovial fluid (caMHB-HSF)). See Examples.
Minimum Inhibitory Concentrations (MICs) of the CF-301 lysin (SEQ ID NO: 1) against S. epidermidis were determined using broth microdilution (BMD) following CLSI methodology (M07-A11, 2018) in a non-standard medium (caMHB supplemented to 25% with horse serum and 0.5 mM with DTT (caMHB-HSD)) approved for use by the CLSI in antimicrobial susceptibility testing with CF-301 (CLSI, AST Subcommittee Meeting, January, 2018). Activity of CF-301 against S. epidermidis in HSF (Discovery Life Sciences) was similarly determined using BMD in caMHB with 50% HSF (caMHB-HSF). The caMHB-HSF supports the growth and biofilm formation of S. epidermidis as well as S. aureus.

[8] = after a single dose of 10 mg/kg
[9] = test system: S. epidermidis isolate NRS6 biofilms; assay: Disruption of biofilms formed in human synovial fluid (fluorescent imaging); assay type: cell-based
Protocol: Macroscopic analysis of CF-301 activity on biofilms, which were formed in human synovial fluid, was performed in the manner described in Dastgheyb et al. (2015) JID 211:641-50 and Dastgheyb et al. (2015) AAC 59:e04579-14. Briefly, 10^8 CFUs of S. epidermidis isolate NRS6 were incubated for 24 hours at 37° C. in 24-well plates containing HSF. After biofilm formation, the wells were stained with ethidium bromide (EtBr) and treated with 0.1 or 1 μg/mL CF-301 for 2 hours. The biofilms were visualized by UV fluorescent imaging. Untreated controls were also examined.
The biofilms were also stained with Alexa Flour^488-WGA, which stained the exopolysaccharide in the biofilms (and individual bacteria) and propidium iodide (PI) which stained the entire biofilm. The biofilms were then visualized by fluorescence microscopy. As evidenced in FIG. 3, the S. epidermidis biofilms formed in HSF were eliminated after two hours of treatment with 0.1 ug/mL or 1 ug/mL CF-301.

[10] = Pathological slides, rat osteomyelitis model (Example 6); assay type: in vivo, Sprague Dawley rats; settings: rats, pp296 line: 40 mg/kg daily dosing (Treatment Group 3)
Excerpt: These findings are consistent with acute osteomyelitis, and no appreciable differentiation between groups could be made.

[11] = DAP 60 mg/kg s.c. twice daily for 4 days
[12] = CF-301 into the joint during arthroscopic DAIR, daptomycin, linezolid then suppressive tedizolid
[13] = caMHB-HSD (25% horse serum, 0.5 mM DTT)
[14] = caMHB-HSF (50% human synovial fluid)
[15] = groups pp296 40 mg/kg, without or with DAP
[16] = groups pp296 100 mg/kg, without or with DAP
[17] = pp296 40 mg/kg i.v. daily for 4 days (combination: plus DAP 60 mg/kg s.c. twice daily for 4 days)
[18] = pp296 100 mg/kg i.v. single dose on treatment day 1 (combination: plus DAP 60 mg/kg s.c. twice daily for 4 days)

Molecule: CCCCCCCCCC(=O)N[C@@H](Cc1c[nH]c2ccccc12)C(=O)N[C@H](CC(N)=O)C(=O)N[C@@H](CC(=O)O)C(=O)N[C@@H]1C(=O)NCC(=O)N[C@@H](CCCN)C(=O)N[C@@H](CC(=O)O)C(=O)N[C@H](C)C(=O)N[C@@H](CC(=O)O)C(=O)NCC(=O)N[C@H](CO)C(=O)N[C@@H]([C@H](C)CC(=O)O)C(=O)N[C@@H](CC(=O)c2ccccc2N)C(=O)O[C@@H]1C [daptomycin, reference compound]
- Body weight on Day 1 ([1]; group DAP 60 mg/kg): 339 g
- mean (±SD) bacterial density (MRSA IDRL-6169 [2]): 4.09 (±0.37) log10 cfu/gram of bone
- reduction compared to untreated rats (MRSA IDRL-6169 [2]): 1.04 log10 cfu/gram of bone
- Minimum biofilm inhibitory concentration (MRSA IDRL-6169 biofilm): 1 µg/mL
- minimum biofilm bactericidal concentration (MRSA IDRL-6169 biofilm): 2 µg/mL
- MIC (MRSA IDRL-6169 [3]; Staphylococcus aureus, read-out: minimum inhibitory concentration): 0.5 µg/mL (≈ 0.309 µM)
- Mean log10 CFU/g [4, 11]: 4.29 log10 CFU/g
- Median log10 CFU/g [4, 11]: 4.79 log10 CFU/g
- Mean log10 CFU/g reduction [4, 11]: −1.14 log10 CFU/g

B1: CF-301: PlySs2 lysin of SEQ ID NO: 1, anti-staphylococcal lysin encoded within a prophage of the Streptococcus suis genome (protein, listed as Streptococcus suis)
chain: MTTVNEALNNVRAQVGSGVSVGNGECYALASWYERMISPDATVGLGAGVGWVSGAIGDTISAKNIGSSYNWQANGWTVSTSGPFKAGQIVTLGATPGNPYGHVVIVEAVDGDRLTILEQNYGGKRYPVRNYYSAASYRQQVVHYITPPGTVAQSAPNLAGSRSYRETGTMTVTVDALNVRRAPNTSGEIVAVYKRGESFDYDTVIIDVNGYVWVSYIGGSGKRNYVATGATKDGKRFGNAWGTFK
- mean (±SD) bacterial density (MRSA IDRL-6169 [2]): 4.65 (±0.65) log10 cfu/gram of bone
- reduction compared to untreated rats (MRSA IDRL-6169 [2]): 0.65 log10 cfu/gram of bone
- outcome after 1 year follow up in the two septic arthritis patients [5, 12]: favorable
- outcome at 6 months in the two patients with fistula at baseline [5, 12]: recurrence of the fistula
- adverse events during arthroscopy ([5]; four patients, CF-301 (75 mg/mL; 30 mL) into the joint during arthroscopy, followed by antibiotics): No adverse events
- CF-301 MIC ([6]; S. aureus strain ATCC BAA-42, caMHB-HSD): 0.5 µg/mL
- CF-301 MIC ([6]; S. aureus strain ATCC BAA-42, caMHB-HSF): 0.03 µg/mL
- CF-301 MIC ([6]; S. aureus strain MW2, caMHB-HSD): 0.5 µg/mL
- CF-301 MIC ([6]; S. aureus strain MW2, caMHB-HSF): 0.03 µg/mL
- Minimum biofilm inhibitory concentration (MRSA IDRL-6169 biofilm): 1 µg/mL
- minimum biofilm bactericidal concentration (MRSA IDRL-6169 biofilm): 4 µg/mL
- CF-301 MIC, MIC50 [7, 13]: 0.5 µg/mL
- CF-301 MIC, MIC90 [7, 13]: 0.5 µg/mL
- CF-301 MIC, Range [7, 13]: 0.25 to 2 µg/mL
- CF-301 MIC, MIC50 [7, 14]: 0.015 µg/mL
- CF-301 MIC, MIC90 [7, 14]: 0.125 µg/mL
- CF-301 MIC, Range [7, 14]: 0.0078 to 2 µg/mL
- Levels of CF-301 in bone relative to plasma levels [8]: 10-15%
- minimum inhibitory concentration (MRSA IDRL-6169 [3]): 0.5 µg/mL
- ethidium bromide staining of biofilm structures formed by NRS6 in human synovial fluid ([9]; 0.1 or 1 μg/mL CF-301 for 2 hours, UV fluorescent imaging, FIG. 2): eliminated
- S. epidermidis biofilms formed in HSF, Alexa Fluor 488-WGA / propidium iodide fluorescence microscopy ([9]; two hours of treatment with 0.1 ug/mL or 1 ug/mL CF-301, FIG. 3): eliminated

B2: pp296: modified PlySs2 lysin, SEQ ID NO: 6; L92W, V104S, V128T and Y137S, Y164K, N184D, S198Q (protein)
chain: MTTVNEALNNVRAQVGSGVSVGNGECYALASWYERMISPDATVGLGAGVGWVSGAIGDTISAKNIGSSYNWQANGWTVSTSGPFKAGQIVTWGATPGNPYGHVSIVEAVDGDRLTILEQNYGGKRYPTRNYYSAASSRQQVVHYITPPGTVAQSAPNLAGSRSKRETGTMTVTVDALNVRRAPDTSGEIVAVYKRGEQFDYDTVIIDVNGYVWVSYIGGSGKRNYVATGATKDGKRFGNAWGTFK
- Pathological slides (marrow cellularity) [10]: only possible hypercellularity
- Body weight on Day 8 [1, 15]: 313 g
- Body weight on Day 8 [1, 16]: 312 g
- Body weight on Day 12 ([1]; pp296 40 mg/kg i.v. daily for 4 days): 311 g
- Body weight on Day 12 ([1]; pp296 100 mg/kg i.v. single dose): 312 g
- Body weight on Day 1 [1, 15]: 342 g
- Body weight on Day 1 [1, 16]: 344 g
- Mean log10 CFU/g [4, 17]: 4.94 log10 CFU/g
- Median log10 CFU/g [4, 17]: 5.27 log10 CFU/g
- Mean log10 CFU/g [4, 18]: 4.81 log10 CFU/g
- Median log10 CFU/g [4, 18]: 4.99 log10 CFU/g
- Mean log10 CFU/g reduction [4, 17]: −0.49 log10 CFU/g
- Mean log10 CFU/g reduction [4, 18]: −0.61 log10 CFU/g
